Changes are numbered by the printed parent chain.
B1: D56C (antibody, V domains shown)
VH: QVQLVQSGAEVKKPGSSVKVSCKASGYTFSSNVISWVRQAPGQGLEWMGGVIPIVCIANYAQRFKGRVTITADESTSTTYMELSSLRSEDTAVYYCASTLGLVLDAMDYWGQGTLVTVSS
VL: ETVLTQSPGTLSLSPGERATLSCRASQSLGSSYLAWYQQKPGQAPRLLIYGASSRAPGIPDRFSGSGSGTDFTLTISRLEPEDFAVYYCQQYADSPITFGQGTRLEIK
notes: GC1008 IgG4 variant
B2: D56E (antibody, V domains shown)
VH: B1 VH with C56E
VL: B1 VL
notes: GC1008 IgG4 variant
B3: D56F (antibody, V domains shown)
VH: B1 VH with C56F
VL: B1 VL
notes: GC1008 IgG4 variant
B4: D56G (antibody, V domains shown)
VH: B1 VH with C56G
VL: B1 VL
notes: GC1008 IgG4 variant
B5: D56H (antibody, V domains shown)
VH: B1 VH with C56H
VL: B1 VL
notes: GC1008 IgG4 variant
B6: D56I (antibody, V domains shown)
VH: B1 VH with C56I
VL: B1 VL
notes: GC1008 IgG4 variant
B7: D56K (antibody, V domains shown)
VH: B1 VH with C56K
VL: B1 VL
notes: GC1008 IgG4 variant
B8: D56L (antibody, V domains shown)
VH: B1 VH with C56L
VL: B1 VL
notes: GC1008 IgG4 variant
B9: D56N (antibody, V domains shown)
VH: B1 VH with C56N
VL: B1 VL
notes: GC1008 IgG4 variant
B10: D56Q (antibody, V domains shown)
VH: B1 VH with C56Q
VL: B1 VL
notes: GC1008 IgG4 variant
B11: E74A (antibody, V domains shown)
VH: B1 VH with C56D, E74A
VL: B1 VL
notes: GC1008 IgG4 variant
B12: E74D (antibody, V domains shown)
VH: B1 VH with C56D, E74D
VL: B1 VL
notes: GC1008 IgG4 variant
B13: E74G (antibody, V domains shown)
VH: B1 VH with C56D, E74G
VL: B1 VL
notes: GC1008 IgG4 variant
B14: E74H (antibody, V domains shown)
VH: B1 VH with C56D, E74H
VL: B1 VL
notes: GC1008 IgG4 variant
B15: E74P (antibody, V domains shown)
VH: B1 VH with C56D, E74P
VL: B1 VL
notes: GC1008 IgG4 variant
B16: E74Q (antibody, V domains shown)
VH: B1 VH with C56D, E74Q
VL: B1 VL
notes: GC1008 IgG4 variant
B17: E74S (antibody, V domains shown)
VH: B1 VH with C56D, E74S
VL: B1 VL
notes: GC1008 IgG4 variant
B18: E74T (antibody, V domains shown)
VH: B1 VH with C56D, E74T
VL: B1 VL
notes: GC1008 IgG4 variant
B19: E74Y (antibody, V domains shown)
VH: B1 VH with C56D, E74Y
VL: B1 VL
notes: GC1008 IgG4 variant
B20: S30A (antibody, V domains shown)
VH: B1 VH with S30A, C56D
VL: B1 VL
notes: GC1008 IgG4 variant
B21: S30H (antibody, V domains shown)
VH: B1 VH with S30H, C56D
VL: B1 VL
notes: GC1008 IgG4 variant
B22: D56P (antibody, V domains shown)
VH: B1 VH with C56P
VL: B1 VL
notes: GC1008 IgG4 variant
B23: I52F (antibody, V domains shown)
VH: B1 VH with I52F, C56D
VL: B1 VL
notes: GC1008 IgG4 variant
B24: I52P (antibody, V domains shown)
VH: B1 VH with I52P, C56D
VL: B1 VL
notes: GC1008 IgG4 variant
B25: I52T (antibody, V domains shown)
VH: B1 VH with I52T, C56D
VL: B1 VL
notes: GC1008 IgG4 variant
B26: I54G (antibody, V domains shown)
VH: B1 VH with I54G, C56D
VL: B1 VL
notes: GC1008 IgG4 variant
B27: I54Q (antibody, V domains shown)
VH: B1 VH with I54Q, C56D
VL: B1 VL
notes: GC1008 IgG4 variant
B28: I54S (antibody, V domains shown)
VH: B1 VH with I54S, C56D
VL: B1 VL
notes: GC1008 IgG4 variant
B29: I54Y (antibody, V domains shown)
VH: B1 VH with I54Y, C56D
VL: B1 VL
notes: GC1008 IgG4 variant
B30: S30K (antibody, V domains shown)
VH: B1 VH with S30K, C56D
VL: B1 VL
notes: GC1008 IgG4 variant
B31: V55A (antibody, V domains shown)
VH: B1 VH with V55A, C56D
VL: B1 VL
notes: GC1008 IgG4 variant
B32: V55I (antibody, V domains shown)
VH: B1 VH with V55I, C56D
VL: B1 VL
notes: GC1008 IgG4 variant
B33: V55L (antibody, V domains shown)
VH: B1 VH with V55L, C56D
VL: B1 VL
notes: GC1008 IgG4 variant
B34: V55M (antibody, V domains shown)
VH: B1 VH with V55M, C56D
VL: B1 VL
notes: GC1008 IgG4 variant
B35: V55W (antibody, V domains shown)
VH: B1 VH with V55W, C56D
VL: B1 VL
notes: GC1008 IgG4 variant

biological target: T1, human TGFβ1 (human, UniProt P01137 279-390); test: Biacore off-rate vs wt GC1008, 50 nM
T1 construct: also called TGFβ1 homodimer
T1 sequence (P01137 279-390 limits assumed): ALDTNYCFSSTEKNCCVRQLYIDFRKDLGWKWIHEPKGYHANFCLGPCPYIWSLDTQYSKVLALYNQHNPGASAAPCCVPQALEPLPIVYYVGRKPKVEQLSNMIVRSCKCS
Text: (§1) Plasmids encoding either the GC1008 heavy chain or light chain were used as a template in PCR-based mutagenesis reactions. Mutations to the encoding DNA were made to create 155 single amino acid substitutions of the encoded heavy chain amino acid sequence and one single amino acid substitution of the encoded light chain amino acid sequence. A QuikChange® Lightning Site-Directed Mutagenesis kit (Agilent Technologies, Santa Clara Calif.) was used according to the manufacturer's instructions to create DNA mutations using a set of forward and reverse primers, either designed for a specific amino acid or for all 20 amino acids with a degenerate codon (NNK). After sequencing confirmation, identified mutant DNA was paired with a wild-type light or heavy chain DNA for transfection into an Expi293F™ host cell suspension (Life Techonologies Corp., Grand Island, N.Y.). At 4 days post-transfection, conditioned media (1 mL) was harvested and purified using a 1 mL Protein A PhyTip® column (PhyNexus, Inc., San Jose, Calif.) and a PureSpeed™ 12-channel pipette (Rainin Instrument LLC, Oakland, Calif.). Purified variant antibody samples were analyzed in duplicate on a Biacore® 3000 (GE Healthcare) at 50 nM concentrations, using the 100 RU level TGFβ1, 2, and 3 immobilized surfaces. The off-rate (kd) of the variants was divided by the kd of the wild-type control to obtain the fold change in the kd. […] A heat map was generated to visualize the results. Variants that completely lost affinity for TGFβ were shown in red without numbers.

Question: How did the kd var/kd wt turn out when B1 was run?
Answer: 1.1

Question: How did the kd var/kd wt turn out when B2 was run?
Answer: 1

Question: For B3, which kd var/kd wt is on record?
Answer: 2.3

Question: Which kd var/kd wt does the source give for B4 here?
Answer: 1.4

Question: B5 was tested. Which kd var/kd wt did it give?
Answer: 1.1

Question: For B6, which kd var/kd wt is on record?
Answer: 1.6

Question: B7 was tested. Which kd var/kd wt did it give?
Answer: 1.1

Question: For B8, which kd var/kd wt is on record?
Answer: 1.3

Question: For B9, which kd var/kd wt is on record?
Answer: 1.2

Question: How did the kd var/kd wt turn out when B10 was run?
Answer: 1.1

Question: How did the kd var/kd wt turn out when B11 was run?
Answer: 1

Question: For B12, which kd var/kd wt is on record?
Answer: 0.9

Question: Which kd var/kd wt does the source give for B13 here?
Answer: 1

Question: For B14, which kd var/kd wt is on record?
Answer: 0.9

Question: For B15, which kd var/kd wt is on record?
Answer: 0.8

Question: B16 was tested. Which kd var/kd wt did it give?
Answer: 1.2

Question: Which kd var/kd wt does the source give for B17 here?
Answer: 0.8

Question: B18 was tested. Which kd var/kd wt did it give?
Answer: 0.8

Question: For B19, which kd var/kd wt is on record?
Answer: 0.7

Question: B20 was tested. Which kd var/kd wt did it give?
Answer: 0.7

Question: Which kd var/kd wt does the source give for B21 here?
Answer: 0.9

biological target: T2, human TGFβ2 (human, UniProt P61812 303-414); test: Biacore off-rate vs wt GC1008, 50 nM
T2 construct: also called TGFβ2 homodimer
T2 sequence: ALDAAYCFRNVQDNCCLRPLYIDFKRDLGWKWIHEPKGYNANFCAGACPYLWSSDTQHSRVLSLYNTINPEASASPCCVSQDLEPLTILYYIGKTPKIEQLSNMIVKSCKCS
Text: as §1

Question: B1 was tested. Which kd var/kd wt did it give?
Answer: 1.3

Question: With B2 as the binder, how does the kd var/kd wt read?
Answer: 1.2

Question: With B3 as the binder, how does the kd var/kd wt read?
Answer: 1.5

Question: How did the kd var/kd wt turn out when B4 was run?
Answer: 1.5

Question: With B5 as the binder, how does the kd var/kd wt read?
Answer: 1.3

Question: With B6 as the binder, how does the kd var/kd wt read?
Answer: 1.5

Question: How did the kd var/kd wt turn out when B7 was run?
Answer: 1.3

Question: With B8 as the binder, how does the kd var/kd wt read?
Answer: 1.4

Question: With B9 as the binder, how does the kd var/kd wt read?
Answer: 1.4

Question: For B22, which kd var/kd wt is on record?
Answer: 1.9

Question: With B10 as the binder, how does the kd var/kd wt read?
Answer: 1.3

Question: Which kd var/kd wt does the source give for B12 here?
Answer: 0.8

Question: For B13, which kd var/kd wt is on record?
Answer: 0.7

Question: B16 was tested. Which kd var/kd wt did it give?
Answer: 0.8

Question: How did the kd var/kd wt turn out when B17 was run?
Answer: 0.7

Question: Which kd var/kd wt does the source give for B18 here?
Answer: 0.9

Question: How did the kd var/kd wt turn out when B23 was run?
Answer: 1.9

Question: Which kd var/kd wt does the source give for B24 here?
Answer: 1.9

Question: B25 was tested. Which kd var/kd wt did it give?
Answer: 1.9

Question: How did the kd var/kd wt turn out when B26 was run?
Answer: 1.8

Question: Which kd var/kd wt does the source give for B27 here?
Answer: 1.8

Question: How did the kd var/kd wt turn out when B28 was run?
Answer: 1.7

Question: Which kd var/kd wt does the source give for B29 here?
Answer: 1.3

Question: B21 was tested. Which kd var/kd wt did it give?
Answer: 0.8

Question: Which kd var/kd wt does the source give for B30 here?
Answer: 1.5

Question: Which kd var/kd wt does the source give for B31 here?
Answer: 1.7

Question: With B32 as the binder, how does the kd var/kd wt read?
Answer: 1.7

Question: How did the kd var/kd wt turn out when B33 was run?
Answer: 1.6

Question: With B34 as the binder, how does the kd var/kd wt read?
Answer: 1.7

Question: With B35 as the binder, how does the kd var/kd wt read?
Answer: 1.3

biological target: T3, human TGFβ3 (human, UniProt P10600 301-412); test: Biacore off-rate vs wt GC1008, 50 nM
T3 sequence: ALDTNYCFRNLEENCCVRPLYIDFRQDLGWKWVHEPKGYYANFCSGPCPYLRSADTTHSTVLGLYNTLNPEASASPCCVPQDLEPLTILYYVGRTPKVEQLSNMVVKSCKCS
Text: as §1

Question: For B1, which kd var/kd wt is on record?
Answer: 0.8

Question: For B2, which kd var/kd wt is on record?
Answer: 0.9

Question: Which kd var/kd wt does the source give for B3 here?
Answer: 1.5

Question: How did the kd var/kd wt turn out when B4 was run?
Answer: 1.1

Question: B5 was tested. Which kd var/kd wt did it give?
Answer: 0.7

Question: Which kd var/kd wt does the source give for B6 here?
Answer: 1.4

Question: With B7 as the binder, how does the kd var/kd wt read?
Answer: 0.7

Question: Which kd var/kd wt does the source give for B8 here?
Answer: 1

Question: For B9, which kd var/kd wt is on record?
Answer: 0.9

Question: With B10 as the binder, how does the kd var/kd wt read?
Answer: 1

Question: With B23 as the binder, how does the kd var/kd wt read?
Answer: 2

Question: For B25, which kd var/kd wt is on record?
Answer: 2.1

Question: With B29 as the binder, how does the kd var/kd wt read?
Answer: 1.5

Question: For B30, which kd var/kd wt is on record?
Answer: 1.6

Question: Which kd var/kd wt does the source give for B31 here?
Answer: 2

Question: For B32, which kd var/kd wt is on record?
Answer: 1.8

Question: How did the kd var/kd wt turn out when B33 was run?
Answer: 1.8

Question: B35 was tested. Which kd var/kd wt did it give?
Answer: 2.1

— patent US20170342144A1 (Sanofi, published 2017)
